US20250145714A1 (GENUV, published 2025)
Values belong to the molecule of their own block, whether it stands above or below them.

Columns and labels:
[1] = molecular target: IL-2Rβγ-His (Acrobiosystems) (UniProt P14784); test: ELISA on plate-coated IL-2Rβγ-His, OD450 against antibody concentration (M)
[2] = molecular target: IL-2Rα-His (Acrobiosystems) (UniProt P01589); test: ELISA on plate-coated IL-2Rα-His, OD450 against antibody concentration (M)
[3] = molecular target: T1, Human PD-1 (Acrobiosystems, Cat #PD1-H5221) (human, UniProt Q15116 25-167); test: SPR Biacore 8K, human PD-1 amine-coupled on CM5, 1:1 model, pH 7.4
T1 construct: Bought protein, immobilised on a CM5 chip; also called hPD-1
Method: (§1) Human PD-1 (Acrobiosystems, Cat #PD1-H5221) at a concentration of 1 μg/ml was immobilized on a CM5 chip (Cytiva) using an amine coupling kit (Cytiva) according to the manufacturer's instructions. […] After each experiment in each concentration cycle, the chip was regenerated with glycine at pH 1.5. At this time, the running buffer used was a pH 7.4 or pH 6.0 HBS-EP+ buffer (0.1 M HEPES, 1.5 M NaCl, 0.03 M EDTA and 0.5% v/v Surfactant P20), and the experimental proteins were diluted in the running buffer.
(§2) The analysis was performed using the 1:1 binding model in Biacore evaluation software version 3.0, and the results of the kinetic constants (ka and kd) and affinity (KD) values are shown in Table 3 below.

[4] = molecular target: T1, Human PD-1 (Acrobiosystems, Cat …); test: SPR Biacore 8K, human PD-1 amine-coupled on CM5, 1:1 model, pH 6.0
Method: as §1, §2

T1 sequence (Q15116 25-167 limits assumed): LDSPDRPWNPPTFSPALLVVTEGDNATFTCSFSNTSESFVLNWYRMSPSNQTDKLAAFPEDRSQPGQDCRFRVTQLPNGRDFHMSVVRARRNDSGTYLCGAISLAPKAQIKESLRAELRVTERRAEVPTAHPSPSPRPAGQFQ
Chain of IL-2Rβγ-His (Acrobiosystems) (P14784 27-239 limits assumed, chain 1 of 2): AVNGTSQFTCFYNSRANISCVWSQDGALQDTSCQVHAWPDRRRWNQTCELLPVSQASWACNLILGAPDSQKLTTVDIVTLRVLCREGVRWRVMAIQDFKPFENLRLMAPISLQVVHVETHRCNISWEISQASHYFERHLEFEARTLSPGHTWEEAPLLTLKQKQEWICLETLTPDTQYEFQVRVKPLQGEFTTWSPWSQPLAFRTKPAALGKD
Chain of IL-2Rβγ-His (Acrobiosystems) (P31785 23-262 limits assumed, chain 2 of 2, further chain): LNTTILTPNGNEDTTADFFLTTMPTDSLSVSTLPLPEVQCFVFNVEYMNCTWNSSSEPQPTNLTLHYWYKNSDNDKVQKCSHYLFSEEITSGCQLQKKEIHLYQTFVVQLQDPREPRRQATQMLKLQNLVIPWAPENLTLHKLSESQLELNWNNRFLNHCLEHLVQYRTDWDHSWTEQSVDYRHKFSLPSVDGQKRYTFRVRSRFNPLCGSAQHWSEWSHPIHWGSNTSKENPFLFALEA
Chain of IL-2Rα-His (Acrobiosystems) (P01589 22-213): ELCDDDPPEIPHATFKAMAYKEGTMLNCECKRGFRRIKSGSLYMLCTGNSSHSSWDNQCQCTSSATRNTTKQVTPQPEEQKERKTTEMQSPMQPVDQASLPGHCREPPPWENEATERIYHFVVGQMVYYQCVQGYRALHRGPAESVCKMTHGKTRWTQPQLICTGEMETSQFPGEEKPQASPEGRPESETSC

EC50 [1]: 7.99 nM
EC50 [2]: 0.325 nM
Molecule: Fc-IL2 (control antibody; prepared in-house) (Fc fusion)

Kd [3]: 0.237 nM
koff [3]: 3.51e-05 s⁻¹
kon [3]: 148000 M⁻¹ s⁻¹
Kd [4]: 0.0481 nM
koff [4]: 1.38e-05 s⁻¹
kon [4]: 286000 M⁻¹ s⁻¹
B1: 1G1-h70 (antibody, V domains shown)
VH: QVQLVQSGAEVKKPGASVKVSCKASGYTFTGYWMHWVRQAPGQGLEWIGMIHPNSDTTTYNEKFKNRVTMTRDTSISTAYMELSRLRSDDTAVYYCAGTDQAAWFAFWGQGTTVTVSS
VL: DIVMTQTPLSLSVTPGQPASISCRSSQNIVHSQGDTYLEWYLQKPGQSPQLLIYKVSKRFSGVPDRFSGSGSGTDFTLKISRVEAEDVGVYYCFQGSHVPWTFGGGTKVEIK
notes: also called humanized anti-PD-1 antibody 1G1-h70; anti-PD-1 antibody
